The target of experiment [1] is T1, human collagen type I, acid soluble, extracted from placenta (Sigma C7774) (human, UniProt P02452 162-1218; P08123 80-1119).
T1 construct: tissue extract, gelled and dried in wells; also called dried human collagen; h-Collagen
Briefly: dried collagen assay.

The target of experiment [2] is T2, rat collagen, acid soluble, type I, rat tail (Upstate 08-115) (rat, UniProt P02454 152-1207; P02466 86-1125).
T2 construct: tissue extract, gelled and dried in wells; also called dried rat collagen
T2 sequence (P02454 152-1207, chain 1 of 2): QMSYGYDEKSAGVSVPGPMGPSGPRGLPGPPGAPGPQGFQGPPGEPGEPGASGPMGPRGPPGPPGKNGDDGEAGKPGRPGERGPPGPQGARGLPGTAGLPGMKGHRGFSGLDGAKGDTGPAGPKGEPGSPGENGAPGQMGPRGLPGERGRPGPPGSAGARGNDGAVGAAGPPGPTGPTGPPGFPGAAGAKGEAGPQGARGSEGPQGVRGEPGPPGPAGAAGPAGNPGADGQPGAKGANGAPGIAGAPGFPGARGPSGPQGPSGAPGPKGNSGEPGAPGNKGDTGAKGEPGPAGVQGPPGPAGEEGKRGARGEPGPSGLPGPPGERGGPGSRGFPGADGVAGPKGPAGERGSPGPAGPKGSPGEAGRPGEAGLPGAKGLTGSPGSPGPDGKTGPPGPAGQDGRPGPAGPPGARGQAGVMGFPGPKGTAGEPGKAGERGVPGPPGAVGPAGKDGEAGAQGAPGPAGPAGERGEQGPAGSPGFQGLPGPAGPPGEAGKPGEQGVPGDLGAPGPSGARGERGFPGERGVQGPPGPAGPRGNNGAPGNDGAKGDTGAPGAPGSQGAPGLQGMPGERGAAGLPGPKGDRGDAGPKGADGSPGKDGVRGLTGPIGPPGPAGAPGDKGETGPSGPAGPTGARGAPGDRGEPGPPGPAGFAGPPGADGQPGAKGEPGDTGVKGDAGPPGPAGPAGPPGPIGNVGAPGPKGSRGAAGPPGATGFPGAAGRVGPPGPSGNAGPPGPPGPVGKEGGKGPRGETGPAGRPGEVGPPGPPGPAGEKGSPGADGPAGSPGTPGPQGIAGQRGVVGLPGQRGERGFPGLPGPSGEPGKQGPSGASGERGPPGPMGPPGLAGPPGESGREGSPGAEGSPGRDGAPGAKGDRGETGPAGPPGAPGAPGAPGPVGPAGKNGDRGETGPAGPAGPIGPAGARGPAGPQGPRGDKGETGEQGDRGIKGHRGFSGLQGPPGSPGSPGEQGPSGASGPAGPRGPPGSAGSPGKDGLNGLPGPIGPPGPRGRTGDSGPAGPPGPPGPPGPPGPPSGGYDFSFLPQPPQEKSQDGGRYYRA
T2 sequence (P02466 86-1125, chain 2 of 2): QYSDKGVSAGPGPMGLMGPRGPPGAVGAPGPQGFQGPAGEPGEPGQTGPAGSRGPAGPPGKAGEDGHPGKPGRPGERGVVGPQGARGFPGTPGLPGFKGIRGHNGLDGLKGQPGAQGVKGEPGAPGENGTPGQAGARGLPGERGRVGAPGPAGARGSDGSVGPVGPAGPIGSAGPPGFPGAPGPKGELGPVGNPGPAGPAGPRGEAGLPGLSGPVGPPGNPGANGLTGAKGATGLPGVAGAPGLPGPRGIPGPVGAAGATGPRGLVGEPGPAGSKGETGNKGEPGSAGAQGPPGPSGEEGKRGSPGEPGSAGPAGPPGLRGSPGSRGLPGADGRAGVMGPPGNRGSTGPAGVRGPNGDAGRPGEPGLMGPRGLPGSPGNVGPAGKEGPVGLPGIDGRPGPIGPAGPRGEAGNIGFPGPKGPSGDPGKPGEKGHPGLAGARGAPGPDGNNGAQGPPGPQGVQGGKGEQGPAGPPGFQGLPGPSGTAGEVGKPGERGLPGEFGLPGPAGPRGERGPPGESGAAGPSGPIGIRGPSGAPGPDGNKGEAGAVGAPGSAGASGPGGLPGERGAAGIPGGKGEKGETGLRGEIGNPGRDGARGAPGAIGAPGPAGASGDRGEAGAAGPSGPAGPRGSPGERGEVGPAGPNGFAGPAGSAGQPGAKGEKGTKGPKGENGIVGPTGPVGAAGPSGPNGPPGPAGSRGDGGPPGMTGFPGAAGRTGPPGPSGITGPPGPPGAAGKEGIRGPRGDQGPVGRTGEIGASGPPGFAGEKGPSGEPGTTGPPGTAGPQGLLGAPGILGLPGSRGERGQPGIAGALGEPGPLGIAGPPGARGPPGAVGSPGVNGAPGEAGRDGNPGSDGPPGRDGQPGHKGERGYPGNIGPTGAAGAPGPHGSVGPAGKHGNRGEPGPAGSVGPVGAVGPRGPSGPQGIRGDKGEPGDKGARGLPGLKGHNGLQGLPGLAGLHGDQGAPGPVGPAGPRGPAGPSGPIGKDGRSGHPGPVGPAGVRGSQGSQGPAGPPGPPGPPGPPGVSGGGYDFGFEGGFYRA
Put plainly: dried collagen assay.

Bridge positions count the residues as written; N and C are the ends. Square brackets hold non-standard residues; d marks the D form. Primed or numbered codes have the meaning given here. Ends that are not written are not given here. Tyr(3-NO2) = N[C@@H](Cc1ccc(O)c([N+](=O)[O-])c1)C(=O)O; Tyr(3-Cl) = N[C@@H](Cc1ccc(O)c(Cl)c1)C(=O)O; Phe(4-NH2) = Nc1ccc(C[C@H](N)C(=O)O)cc1; 1,4 AMB(Gd^T) = not defined here; Gd^T = not defined here; Gd^T″ = GdDTPA-thiourea

T1 sequence (P02452 162-1218 limits assumed, chain 1 of 2): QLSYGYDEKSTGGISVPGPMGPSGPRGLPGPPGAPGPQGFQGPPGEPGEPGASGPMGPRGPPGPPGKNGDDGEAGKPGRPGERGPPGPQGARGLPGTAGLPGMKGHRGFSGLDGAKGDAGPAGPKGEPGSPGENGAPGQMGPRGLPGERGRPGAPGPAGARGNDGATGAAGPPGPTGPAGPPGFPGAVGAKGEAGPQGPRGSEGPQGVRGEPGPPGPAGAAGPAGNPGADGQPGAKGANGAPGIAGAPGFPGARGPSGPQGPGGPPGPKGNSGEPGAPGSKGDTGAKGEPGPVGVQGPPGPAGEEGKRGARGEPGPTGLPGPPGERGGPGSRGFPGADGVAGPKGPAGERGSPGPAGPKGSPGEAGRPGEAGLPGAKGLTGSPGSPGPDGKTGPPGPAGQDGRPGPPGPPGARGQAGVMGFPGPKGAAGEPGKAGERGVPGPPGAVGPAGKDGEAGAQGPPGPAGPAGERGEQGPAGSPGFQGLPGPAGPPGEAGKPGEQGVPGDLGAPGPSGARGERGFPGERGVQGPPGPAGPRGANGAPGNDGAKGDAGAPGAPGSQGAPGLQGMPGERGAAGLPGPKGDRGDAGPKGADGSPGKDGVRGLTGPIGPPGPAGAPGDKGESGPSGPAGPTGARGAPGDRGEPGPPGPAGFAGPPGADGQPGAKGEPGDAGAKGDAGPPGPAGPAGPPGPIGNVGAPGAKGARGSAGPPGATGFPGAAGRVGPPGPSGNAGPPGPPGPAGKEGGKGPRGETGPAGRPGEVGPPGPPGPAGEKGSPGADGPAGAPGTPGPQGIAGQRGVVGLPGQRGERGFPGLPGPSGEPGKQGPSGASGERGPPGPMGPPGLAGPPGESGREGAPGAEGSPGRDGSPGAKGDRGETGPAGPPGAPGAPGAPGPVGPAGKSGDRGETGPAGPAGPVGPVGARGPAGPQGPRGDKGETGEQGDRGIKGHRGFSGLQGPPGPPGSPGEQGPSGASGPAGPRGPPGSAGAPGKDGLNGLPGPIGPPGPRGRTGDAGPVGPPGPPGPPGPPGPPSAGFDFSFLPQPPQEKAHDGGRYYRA
T1 sequence (P08123 80-1119 limits assumed, chain 2 of 2): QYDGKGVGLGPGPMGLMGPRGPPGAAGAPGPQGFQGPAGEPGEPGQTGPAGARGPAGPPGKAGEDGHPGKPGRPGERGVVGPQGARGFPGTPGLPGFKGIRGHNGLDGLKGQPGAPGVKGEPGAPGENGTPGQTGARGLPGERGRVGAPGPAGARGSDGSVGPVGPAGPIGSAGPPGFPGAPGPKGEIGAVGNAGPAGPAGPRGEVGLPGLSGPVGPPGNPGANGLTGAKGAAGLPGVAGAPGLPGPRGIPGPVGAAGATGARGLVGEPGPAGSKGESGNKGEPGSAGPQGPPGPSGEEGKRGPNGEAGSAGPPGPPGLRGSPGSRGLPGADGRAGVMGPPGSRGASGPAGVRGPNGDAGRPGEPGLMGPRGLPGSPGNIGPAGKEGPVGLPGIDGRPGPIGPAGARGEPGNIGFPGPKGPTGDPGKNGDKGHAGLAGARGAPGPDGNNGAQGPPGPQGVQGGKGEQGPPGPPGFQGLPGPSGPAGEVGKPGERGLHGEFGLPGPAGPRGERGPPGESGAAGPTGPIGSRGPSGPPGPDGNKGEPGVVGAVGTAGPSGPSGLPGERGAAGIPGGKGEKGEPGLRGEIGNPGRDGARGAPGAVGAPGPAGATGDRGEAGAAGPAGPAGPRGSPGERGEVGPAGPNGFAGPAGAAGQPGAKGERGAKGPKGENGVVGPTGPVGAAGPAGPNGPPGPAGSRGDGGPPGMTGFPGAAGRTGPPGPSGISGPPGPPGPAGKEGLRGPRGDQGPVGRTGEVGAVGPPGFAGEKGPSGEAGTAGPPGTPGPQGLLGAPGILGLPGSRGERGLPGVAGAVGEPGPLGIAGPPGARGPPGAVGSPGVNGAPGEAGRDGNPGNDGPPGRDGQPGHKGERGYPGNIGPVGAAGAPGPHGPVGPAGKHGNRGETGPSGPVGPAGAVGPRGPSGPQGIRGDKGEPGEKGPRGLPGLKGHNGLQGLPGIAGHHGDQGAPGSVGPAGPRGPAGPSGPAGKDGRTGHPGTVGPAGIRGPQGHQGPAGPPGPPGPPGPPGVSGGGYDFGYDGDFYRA

Consider {Gd^T}-DWTC[Tyr(3-NO2)]GDEYTWHCNYE (disulfide 4-13 (inferred); not fully specified (C-terminus); reading uncertain) [Compound ID 843], for which the “% bound” value in experiment [1] is 55%; in experiment [2] it was 36%.
For {Gd^T}-DWTCSGDEYRWHCNYE (disulfide 4-13 (inferred); not fully specified (C-terminus); reading uncertain) [Compound ID 845], in that order: 36% and 10%.
On the same counts, the results for {Gd^T}-DWTCYGDEYTWHCNYE (disulfide 4-13 (inferred); not fully specified (C-terminus); reading uncertain) [Compound ID 844] are 68% and 48%.
On the same counts, the results for {Gd^T″}-GQWHCTTYFPHHYCLYG-{1,4 AMB(Gd^T)} (disulfide 5-14 (inferred); reading uncertain) [Compound ID 816] are 48% and 48%.
On to {Gd^T}-GQWHCTTRFPHH[dY]CLYG (disulfide 5-14 (inferred); not fully specified (C-terminus); reading uncertain) [Compound ID 864], for which the “% bound” value in experiment [1] is 64%; in experiment [2], 50%.
For {Gd^T″}-GQWNCTTLFPHHYCLYG (disulfide 5-14 (inferred)) [Compound ID 922], in that order: 68% and 58%.
For {Gd^T″}-GQWSCTTRFPHHYCLYG (disulfide 5-14 (inferred)) [Compound ID 870], in that order: 30% and 28%.
On the same counts, the results for {Gd^T″}-K(Gd^T″)K(Gd^T″)WHCYTYFPHHYCVYG (disulfide 5-14 (inferred); not fully specified (C-terminus)) [Compound ID 801] are 81% and 77%.
For {Gd^T″}-GAWHCTTYFPHH[dY]CLYG (disulfide 5-14 (inferred); not fully specified (C-terminus)) [Compound ID 915], the results for the “% bound” value in experiment [1] and in experiment [2] were 15% and 0%, respectively.
With {Gd^T″}-GQWHCTYLFPHHYCLYG (disulfide 5-14 (inferred)) [Compound ID 921], the “% bound” value came to 68% in experiment [1] and 35% in experiment [2].
For {Gd^T″}-GQWHCT[dT]RFPHHYCLYG (disulfide 5-14 (inferred)) [Compound ID 879], the results for the “% bound” value in experiment [1] and in experiment [2] were 33% and 0%, respectively.
On the same counts, the results for GQWHCYTLFPHHYCLYG (disulfide 5-14 (inferred); not fully specified (N-terminus)) [Compound ID 920] are 67% and 91%.
On the same counts, the results for {Gd^T″}-GAWHCTTLFPHH[dY]CLYG (disulfide 5-14 (inferred); not fully specified (C-terminus)) [Compound ID 908] are 20% and 0%.
On the same counts, the results for {Gd^T″}-GQWHCTTLFPNHYCLYG (disulfide 5-14 (inferred)) [Compound ID 923] are 28% and 10%.
In the case of {Gd^T}-GQWHCTTDFPHHYCLYG (disulfide 5-14 (inferred); not fully specified (C-terminus); reading uncertain) [Compound ID 851], the “% bound” value was determined as 50% in experiment [1] and 41% in experiment [2].
For {Gd^T}-GQWHCTTAFPHHYCLYG (disulfide 5-14 (inferred); not fully specified (C-terminus); reading uncertain) [Compound ID 853], in that order: 66% and 57%.
With {Gd^T″}-GDWHCTTLFPHH[dY]CLYG (disulfide 5-14 (inferred); not fully specified (C-terminus)) [Compound ID 910], the “% bound” value is 13% in experiment [1] and 0% in experiment [2].
Regarding {Gd^T}-GQWHCTTRYPHHYCLYG (disulfide 5-14 (inferred); not fully specified (C-terminus); reading uncertain) [Compound ID 859], the entries for the “% bound” value in experiment [1] and in experiment [2] were 47% and 38%, respectively.
For {Gd^T″}-GQWHCTTIFPHH[dY]CLYG (disulfide 5-14 (inferred); not fully specified (C-terminus)) [Compound ID 917], in that order: 12% and 0%.
On the same counts, the results for {Gd^T″}-GSWHCTTLFPHH[dY]CLYG (disulfide 5-14 (inferred); not fully specified (C-terminus)) [Compound ID 911] are 15% and 0%.
For {Gd^T″}-GQWHCTTD[Phe(4-NH2)]PHHYCLYG (disulfide 5-14 (inferred)) [Compound ID 884], in that order: 24% and 15%.
{Gd^T}-G[dQ]WHCTTRFPHHYCLYG (disulfide 5-14 (inferred); not fully specified (C-terminus); reading uncertain) [Compound ID 866]: the “% bound” value in experiment [1] came out at 60%; in experiment [2], 38%.
For {Gd^T}-GAWHCTTRFPHHYCLYG (disulfide 5-14 (inferred); not fully specified (C-terminus); reading uncertain) [Compound ID 857], in that order: 67% and 69%.
For {Gd^T″}-GQWHCTTDFPHHYCLFG (disulfide 5-14 (inferred)) [Compound ID 890], in that order: 38% and 15%.
On the same counts, the results for {Gd^T″}-GQWHCTTRFPHHYCK(Gd^T″)YG (disulfide 5-14 (inferred); not fully specified (C-terminus)) [Compound ID 815] are 66% and 59%.
Regarding {Gd^T″}-GQWHCTTLFPHNYCLYG (disulfide 5-14 (inferred)) [Compound ID 924], the “% bound” value stood at 24% in experiment [1] and 1% in experiment [2].
Regarding {Gd^T″}-GQWHCTTDFPHHYCL[Tyr(3-Cl)]G (disulfide 5-14 (inferred)) [Compound ID 892], the results for the “% bound” value in experiment [1] and in experiment [2] were 63% and 56%, respectively.
On the same counts, the results for {Gd^T″}-GQWHCTTRFPSHYCLYG (disulfide 5-14 (inferred)) [Compound ID 880] are 30% and 0%.
Turning to {Gd^T″}-GQWHCATRFPHHYCLYG (disulfide 5-14 (inferred)) [Compound ID 877], the “% bound” value in experiment [1] is 58%; in experiment [2], 41%.
For {Gd^T}-GQWHCTTRFPHHYCAYG (disulfide 5-14 (inferred); not fully specified (C-terminus); reading uncertain) [Compound ID 855], in that order: 27% and 15%.
For {Gd^T″}-GQWHCT[dY]RFPHHYCLYG (disulfide 5-14 (inferred); not fully specified (C-terminus)) [Compound ID 899], in that order: 20% and 14%.
On the same counts, the results for {Gd^T″}-GQWACTTRFPHHYCLYG (disulfide 5-14 (inferred)) [Compound ID 876] are 48% and 26%.
On to {Gd^T″}-GQWHCTTK(Gd^T″)FPHHYCLYG (disulfide 5-14 (inferred); not fully specified (C-terminus)) [Compound ID 813], for which the “% bound” value was 65% in experiment [1] and 55% in experiment [2].
For {Gd^T}-GQWHCTTRFPAHYCLYG (disulfide 5-14 (inferred); not fully specified (C-terminus); reading uncertain) [Compound ID 865], in that order: 30% and 17%.

For the origin of these results see patent publication US20080044360A1 (COLLAGEN MEDICAL, published 2008).
